Assays:
[1] = molecular target: T1, 2-aminoadipic semialdehyde synthase (AASS), lysine-2-oxoglutarate reductase (LOR) domain (Homo sapiens, UniProt Q9UDR5); assay: X-ray crystal structure of NEM-alkylated LOR; also activation in enzyme assay and immunoblot with anti-NEM antibody; assay type: binding
T1 construct: LOR short construct (amino acids 21-451)
T1 sequence (Q9UDR5 21-451): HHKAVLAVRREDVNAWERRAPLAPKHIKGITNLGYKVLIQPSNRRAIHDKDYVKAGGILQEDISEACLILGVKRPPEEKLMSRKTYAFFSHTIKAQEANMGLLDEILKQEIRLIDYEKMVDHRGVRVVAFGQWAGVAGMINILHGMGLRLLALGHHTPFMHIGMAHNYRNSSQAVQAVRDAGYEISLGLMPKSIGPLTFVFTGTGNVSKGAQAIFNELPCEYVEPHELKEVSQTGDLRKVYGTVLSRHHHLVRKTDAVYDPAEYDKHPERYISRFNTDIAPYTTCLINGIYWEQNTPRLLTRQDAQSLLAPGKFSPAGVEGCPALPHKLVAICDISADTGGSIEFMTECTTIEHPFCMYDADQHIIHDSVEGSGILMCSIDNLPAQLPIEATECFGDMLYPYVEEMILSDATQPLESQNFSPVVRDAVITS

[2] = molecular target: T2, 2-aminoadipic semialdehyde synthase (AASS), lysine-2-oxoglutarate reductase (LOR) domain (Homo sapiens, UniProt Q9UDR5); assay: spectrophotometric LOR enzyme assay ([…] nm, NADPH consumption); assay type: biochemical
T2 construct: recombinant LOR domain (amino acids 21-470)
T2 sequence (Q9UDR5 21-470): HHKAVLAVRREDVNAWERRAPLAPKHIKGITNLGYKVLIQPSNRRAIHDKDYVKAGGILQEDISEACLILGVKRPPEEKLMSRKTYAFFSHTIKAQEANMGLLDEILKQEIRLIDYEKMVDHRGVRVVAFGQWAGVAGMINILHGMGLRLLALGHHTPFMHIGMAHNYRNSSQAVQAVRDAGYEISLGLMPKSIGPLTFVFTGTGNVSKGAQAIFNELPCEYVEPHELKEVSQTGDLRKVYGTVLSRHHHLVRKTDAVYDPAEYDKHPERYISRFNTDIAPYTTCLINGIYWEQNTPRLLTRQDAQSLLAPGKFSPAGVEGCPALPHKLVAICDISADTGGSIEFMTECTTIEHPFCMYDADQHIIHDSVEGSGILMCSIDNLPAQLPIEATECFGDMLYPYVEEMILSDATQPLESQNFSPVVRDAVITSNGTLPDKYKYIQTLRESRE

[3] = substrate: NCCCC[C@H](N)C(=O)O; assay: steady-state kinetics, forward reaction (Km); assay type: biochemical, Homo sapiens; details: NADPH; pH 8.8
purified protein [4] = substrate: NC(=O)C1=CN([C@@H]2O[C@H](COP(=O)(O)OP(=O)(O)OC[C@H]3O[C@@H](n4cnc5c(N)ncnc54)[C@H](OP(=O)(O)O)[C@@H]3O)[C@@H](O)[C@H]2O)C=CC1; assay: purified protein; details: predicted: Ser […] and Arg […] interact with the additional phosphate of NADPH; pH 8.8; varied: cofactor
purified protein [5] = substrate: NC(=O)c1ccc[n+]([C@@H]2O[C@H](COP(=O)(O)OP(=O)(O)OC[C@H]3O[C@@H](n4cnc5c(N)ncnc54)[C@H](OP(=O)(O)O)[C@@H]3O)[C@@H](O)[C@H]2O)c1; assay: purified protein; details: pH 8.8; varied: cofactor
purified protein [6] = substrate: O=C(O)CCC(=O)C(=O)O; assay: purified protein; details: NADPH; pH 8.8
[7] = substrate: N[C@@H](CCCCN[C@@H](CCC(=O)O)C(=O)O)C(=O)O; assay: steady-state kinetics, reverse reaction (Km); also inhibits the forward LOR reaction in AASS-Myc-DDK lysates; assay type: biochemical, Homo sapiens; details: NADP+ consistent with its ability to compete with lysine and 2-oxoglutarate; pH 8.8

`CCN1C(=O)C=CC1=O` [NEM, N-ethylmaleimide] was tested, and the “X-ray crystal structure of NEM-alkylated LOR; also activation in enzyme assay an” value [1] was “crystal structure of NEM-alkylated LOR short construct (PDB 8E8V)”.

With `NC[C@@H]1CCCN1C(=O)c1ccc2c(c1)CCC(=O)N2` [S-105] the IC50 [2] was 142 µM.

B1: 2-aminoadipic semialdehyde synthase (AASS), lysine-2-oxoglutarate reductase (LOR) domain (Homo sapiens) (protein)
chain: HHKAVLAVRREDVNAWERRAPLAPKHIKGITNLGYKVLIQPSNRRAIHDKDYVKAGGILQEDISEACLILGVKRPPEEKLMSRKTYAFFSHTIKAQEANMGLLDEILKQEIRLIDYEKMVDHRGVRVVAFGQWAGVAGMINILHGMGLRLLALGHHTPFMHIGMAHNYRNSSQAVQAVRDAGYEISLGLMPKSIGPLTFVFTGTGNVSKGAQAIFNELPCEYVEPHELKEVSQTGDLRKVYGTVLSRHHHLVRKTDAVYDPAEYDKHPERYISRFNTDIAPYTTCLINGIYWEQNTPRLLTRQDAQSLLAPGKFSPAGVEGCPALPHKLVAICDISADTGGSIEFMTECTTIEHPFCMYDADQHIIHDSVEGSGILMCSIDNLPAQLPIEATECFGDMLYPYVEEMILSDATQPLESQNFSPVVRDAVITSNGTLPDKYKYIQTLRESRE
notes: isolated LOR (amino acids 21-470)
B1 showed a Km [3] of 24000 ± 2000 µM, a Vmax [3] of 28.8 µmol/min/mg and a Km (purified protein [4]) of 390 ± 20 µM. The Vmax (purified protein [4]) was 65.4 µmol/min/mg, the Km (purified protein [5]) was 420 ± 10 µM and the Vmax (purified protein [5]) was 525 µmol/min/mg. For the same molecule, the Km (purified protein [6]) was 1400 ± 100 µM, the Vmax (purified protein [6]) was 57.2 µmol/min/mg and the Km [7] was 1700 ± 100 µM. It also gave a Vmax [7] of 443 µmol/min/mg.

Source: PMC9490328, “Characterization and structure of the human lysine-2-oxoglutarate reductase domain, a novel therapeutic target for treatment of glutaric aciduria type 1” (Open Biology, 2022)
